Source: patent publication US20240376199A1 (University of Texas, published 2024)

Tests used:
[1] = target: TREM2 (antigen of the BLI kinetics and binning of Tables 2 and 3); assay: BLI, Octet Red96
[2] = target: TREM2-DAP12 reporter construct on 2B4 NFAT-EGFP reporter cells (mouse; human, UniProt Q99NH8 19-171; O43914 28-113); assay: cell-based or functional assay
[3] = target: T1, muTfR-His (Sino Biological) (mouse, UniProt Q62351 89-763); assay: sandwich BLI, biotinylated TREM2 on streptavidin sensor, antibody step omitted
T1 construct: extracellular domain; Bought protein; also called TfR ECD; mouse transferrin receptor; not shown: His tag
T1 sequence (Q62351 89-763): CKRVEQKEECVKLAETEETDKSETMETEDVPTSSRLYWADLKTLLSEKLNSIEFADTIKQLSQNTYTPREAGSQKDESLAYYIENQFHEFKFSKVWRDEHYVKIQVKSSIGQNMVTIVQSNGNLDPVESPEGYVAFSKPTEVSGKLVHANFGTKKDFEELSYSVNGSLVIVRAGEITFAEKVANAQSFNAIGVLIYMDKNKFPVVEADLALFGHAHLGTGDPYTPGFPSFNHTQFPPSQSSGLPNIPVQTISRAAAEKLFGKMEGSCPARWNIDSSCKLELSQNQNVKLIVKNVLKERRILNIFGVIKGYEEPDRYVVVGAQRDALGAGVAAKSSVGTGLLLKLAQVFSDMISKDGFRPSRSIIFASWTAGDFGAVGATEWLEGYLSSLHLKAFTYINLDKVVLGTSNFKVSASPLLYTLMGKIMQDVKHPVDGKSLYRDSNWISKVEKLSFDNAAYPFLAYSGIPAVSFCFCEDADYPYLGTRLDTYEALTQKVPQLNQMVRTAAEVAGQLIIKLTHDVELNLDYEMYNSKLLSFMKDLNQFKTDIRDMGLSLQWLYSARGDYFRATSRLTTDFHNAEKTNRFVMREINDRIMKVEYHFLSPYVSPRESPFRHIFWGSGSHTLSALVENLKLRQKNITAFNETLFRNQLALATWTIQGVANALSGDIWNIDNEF
Procedure: Streptavidin sensors (Fortebio) were used to capture biotinylated TREM2 proteins (Sino Biological). During all incubation steps, samples were kept at room temperature with 1000 rpm shaking. In the TREM2 loading step, 100 nM biotinylated TREM2 proteins were incubated with the sensors for the designated time. In the bispecific antibody interaction steps, 200 nM antibodies were used. In the muTfR incubation step, 100 nM muTfR-His (Sino Biological) were used. Between incubations, the sensors were dipped into blank kinetic buffers to allow the free dissociation of proteins.

Binder | Kd [1] | koff [1] | kon [1] | EC50 of activation of TREM2-DAP12 NFAT-EGFP reporter cells [2] | binding result [3]
TREM2-Ab1Rb (antibody, V domains shown, Rabbit-derived mAb; also called 1 H / 1 k) VH: QEQLVESGGGLVTPGGTLTLTCTASGIDFSNYGISWVRQAPGKGLEWIGYIYPDYGATAYANWVNGRFTVSLDNAQNTVTLNMTSLTAADTATYFCARSTGWGDFNLWGPGTLVTVSS VL: DVVMTQTPASVSEPVGGTVTIKCQASQNIGSNLAWYQQKPGQPPNLLIYGASNLASGVSSRFKGSSSGTEYTLTISDLECADAATYYCQCTYYGSSYVAFGGGTEVVVK | 1.42 nM | 0.000727 s⁻¹ | 513000 M⁻¹ s⁻¹ | – | –
Ab18 IgG (antibody, V domains shown) VH: QVQLQESGPGLVKPSETLSLTCTVSGGSISSYYWSWIRQPPGKGLEWIGSIYYSGSTNYNPSLKSRVTISVDTSKNQFSLKLSSVTAADTAVYYCARDGGGEYPSGTPFDIWGQGTMVTVSS VL: not shown | – | – | – | 79.4 nM | –
TREM2-Ab22Rb (antibody, V domains shown, Rabbit-derived mAb; also called 22 H / 22 k) VH: QSVEESGGDLVKPGASLTLTCTASGFSFSSTAMCWVRQAPGKGLEWIACIGFSSGIINYANSVKGRFTISKTSSTTVSLQMNSLTAADTATYFCARFFNLWGPGTLVTVSS VL: DPVLTQTPSSVSAAVGGTVTISCQATETVYSNDRLAWYQQKPGQPPKLLIYRISTLESGVPSRFKGSGSGTQFTLTISGVQCDDAATYYCAGGYNGNIWAFGGGTEVVVK | 3.1 nM | 0.00107 s⁻¹ | 346000 M⁻¹ s⁻¹ | – | –
TREM2-Ab12Rb (antibody, V domains shown, Rabbit-derived mAb; also called 12 H / 12 k) VH: QSVEESGGDLVKSGASLTLTCTASGFSFSSYYFMCWVRQAPGRGLEWIACIYAGTSANTYYASWAKGRFTISKTSSTTVTLQMTSLTAADTATYFCARDRGYYTYADAGYAYATDGFDLWGPGTLVTVSS VL: ALVMTQTPASVEAAVGGTVTIKCQASQNIYSNLAWYQQKPGQPPKRLIYKASTLPSGVPSRFKGSGSGTQFTLTISDLECADAATYYCQSNYYSSSSNYGPNAFGGGTEVVVK | 71.8 nM | 0.00685 s⁻¹ | 95500 M⁻¹ s⁻¹ | – | –
TREM2-Ab16Rb (antibody, V domains shown, Rabbit-derived mAb; also called 16 H / 16 k) VH: QEQLVESGGGLVKPGASLTLTCTASGFSFSDTAYICWVRQAPGKGLEWVACIAFGDGRTYLASWAKGRFTISKTSSTTVTLQMTSLPAADTATYFCASNFTLWGPGTLVTVSS VL: DVVMTQTPASVSEPVGGTVTINCQAIQSIGNNFVWYQQKPGQPPKLLIYKASIRASGVSSRFRGSGSGTDFTLTISDLECDDTGTYYCQCTYASSATFGGGTEVVVK | 0.32 nM | 7.84e-05 s⁻¹ | 245000 M⁻¹ s⁻¹ | – | –
TREM2-Ab2Rb (antibody, V domains shown, Rabbit-derived mAb; also called 2 H / 2 k) VH: QKQLVESGGGLVKPEGSLTLTCKVSGIDFSSAGISWVRQAPGKGLEWIAYIYPDYGVTDYANWVNGRFTISLDNAQNTVFLQMTSLTAADTATYFCARMDAADAGYGYDLWGPGTLVTVSS VL: AAVLTQTTSPVSGAVGGTVTIKCQASQSVGSNLAWYQQKPGQPPKILIGGASKLASGVPSRFSGSGSGTEFTLTISDLECADAGTYYCHSYYYSSTSADAFGGGTKVVVE | 1.2 nM | 0.000451 s⁻¹ | 376000 M⁻¹ s⁻¹ | – | –
TREM2-Ab6Rb (antibody, V domains shown, also called 2 H / 6 k) VH: QKQLVESGGGLVKPEGSLTLTCKVSGIDFSSAGISWVRQAPGKGLEWIAYIYPDYGVTDYANWVNGRFTISLDNAQNTVFLQMTSLTAADTATYFCARMDAADAGYGYDLWGPGTLVTVSS VL: DVVMTQTTSPVSGAVGGTVTIKCQASQSVGTNLAWYQQKPGQPPKILIGGASKLASGVPSRFSGSGSGTEFTFTISDLECADAGTYYCHSYYYSSTSADAFGGGTEVVVK | 1.97 nM | 0.000909 s⁻¹ | 461000 M⁻¹ s⁻¹ | – | –
TREM2-Ab26Rb (antibody, V domains shown, Rabbit-derived mAb; also called 26 H / 26 k) VH: QKQLVESGGDLVKPEGSLTLTCTASGFSFSYSYYMCWVRQAPGKGLEWIGCIYGGGSGSSYYASWAKGRFTISKTSSTTVTLQVTSLTAADTATYFCARIDDAYATVMWGPGTLVTVSS VL: DVVMTQTASPVSGAVGGTVTIKCQASEDIYSSLAWYQQKPGQPPKLLIYQASKLASGVPPRFSGSGSGTEYTLTISDLECADAATYYCQNYYYVRGADYWAFGGGTEVVVE | 27.5 nM | 0.00487 s⁻¹ | 177000 M⁻¹ s⁻¹ | – | –
biotinylated TREM2 protein (Sino Biological) (receptor, Biotinylated; sites not stated., not shown: biotin label) LNTTVLQGMAGQSLRVSCTYDALKHWGRRKAWCRQLGEEGPCQRVVSTHGVWLLAFLKKRNGSTVIADDTLAGTVTITLKNLQAGDAGLYQCQSLRGREAEVLQKVLVEVLEDPLDDQDAGDLWVPEESSSFEGAQVEHSTSRNQETSFPPTS | – | – | – | – | no binding (tested: 100 nM)
TREM2-Ab8Hu (antibody, V domains shown, also called H8-Hu / 8L-Hu) VH: QVQLVESGGGLIQPGGSLRLSCAVSGVSVSNNYMNWVRQAPGKGLEWVSSMYSDATTHYADSVKGRFTISRDNSKNNMYLQMDSLRAEDTAVYYCARESVAGTLDFWGQGTTVSVSS VL: SYELTQPPSASGTPGQRVTISCSGSSSNIGTYPVNWYQKLPGTAPKLLIYTNNQRPSGVPDRFSGSKSGTSASLTISGLQSEDEADYYCATWGDSLNAVVFGGGTKVTVL | 8.18 nM | 0.00499 s⁻¹ | 609000 M⁻¹ s⁻¹ | – | –
TREM2-Ab2Hu (antibody, V domains shown, also called H2-Hu / 2L-Hu) VH: QVQLVQSGAEVKKPGASVKVSCKASGYTFTSYYMHWVRQAPGQGLEWMGIINPSGGSTSYAQKFQGRVTMTRDTSTSTVYMELSSLRSEDTAVYYCARDRPGRSSIAAAGPKRGHYGMDVWGQGTTVSVSS VL: QSALNQPASVSGSPGQSITISCTGTSSDVGGYNYVSWYQQHPGKAPKLMIYEVSNRPSGVSNRFSGSKSGNTASLTISGLQAEDEADYYCSSYTSSRTLVFGTGTKVTVL | 18.1 nM | 0.00647 s⁻¹ | 359000 M⁻¹ s⁻¹ | – | –
TREM2-Ab19Hu (antibody, V domains shown, also called H19-Hu / 19L-Hu) VH: EVQLVQSGAEVKKPGASVKVSCKASGYTFTSYYMHWVRQAPGQGLEWMGIINPSGGSTSYAQKFQGRVTMTRDTSTSTVYMELSSLRSEDTAVYYCARSLSSGSYYDYWGQGTLVSVSS VL: QSALTQPASVSGSPGQSITISCTGTSSDVGGYNYVSWYQQHPGKAPKLMIYDVTKRPSGVSNRFSGSKSGNTASLTVSGLQAEDEADYYCSSYTSSRTLVFGGGTKVTVL | 18.9 nM | 0.00986 s⁻¹ | 522000 M⁻¹ s⁻¹ | – | –
